In patent US12624075B2, “Immune inducer” (TORAY INDUSTRIES, INC., priority 2015, dated 2026):

Tested on: HLA-A0201-positive CD8-positive T cells
Assay: IFN-γ-producing ability of HLA-A0201-positive CD8-positive T cells against polypeptide-pulsed dendritic cells (ELISA)
Type: cell-based, human
Details: dendritic cells expressing HLA-A0201 pulsed with 10 μg/mL polypeptide, 24 hours, FIG. 2
Method: Peripheral blood was separated from the blood of an HLA-A0201-positive healthy individual. The peripheral blood was layered on Lymphocyte separation medium (Organon Teknika Corporation, Durham, NC), and then centrifuged at 1,500 rpm at room temperature for 20 minutes. A PBMC-containing fraction was collected and washed 3 times (or more) with a cold phosphate buffer solution to obtain PBMCs. The thus obtained PBMCs were suspended in 20 mL of AIM-V medium (manufactured by Life Technologies, Inc.), and allowed to adhere to a culture flask (manufactured by Falcon Plastics Co.) for 2 hours under the conditions of 37° C. and 5% CO2. Non-adherent cells were used for the preparation of T cells, and adherent cells were used for the preparation of dendritic cells.
The adherent cells were cultured in AIM-V medium in the presence of IL-4 (1,000 U/ml) and GM-CSF (1,000 U/ml). Six days later, the medium was replaced with AIM-V medium supplemented with IL-4 (1,000 U/mL), GM-CSF (1,000 U/mL), IL-6 (1,000 U/mL, manufactured by Genzyme Corporation), IL-1B (10 ng/ml, manufactured by Genzyme Corporation) and TNF-α (10 ng/ml, manufactured by Genzyme Corporation), and the cells were cultured for another 2 days. The resulting population of the non-adherent cells was used as the dendritic cells.
The thus prepared dendritic cells were suspended in AIM-V medium at a cell density of 1×10^6 cells/mL. […]

B1: full-length PDS5A protein: human PDS5A protein of 1337 amino acid residues, prepared according to Example 5 in WO 2011/027807; Comparative Example (protein, listed as Homo sapiens)
chain: MDFTAQPKPATALCGVVSADGKIAYPPGVKEITDKITTDEMIKRLKMVVKTFMDMDQDSEDEKQQYLPLALHLASEFFLRNPNKDVRLLVACCLADIFRIYAPEAPYTSHDKLKDIFLFITRQLKGLEDTKSPQFNRYFYLLENLAWVKSYNICFELEDCNEIFIQLFRTLFSVINNSHNKKVQMHMLDLMSSIIMEGDGVTQELLDSILINLIPAHKNLNKQSFDLAKVLLKRTVQTIEACIANFFNQVLVLGRSSVSDLSEHVFDLIQELFAIDPHLLLSVMPQLEFKLKSNDGEERLAVVRLLAKLFGSKDSDLATQNRPLWQCFLGRFNDIHVPVRLESVKFASHCLMNHPDLAKDLTEYLKVRSHDPEEAIRHDVIVTIITAAKRDLALVNDQLLGFVRERTLDKRWRVRKEAMMGLAQLYKKYCLHGEAGKEAAEKVSWIKDKLLHIYYQNSIDDKLLVEKIFAQYLVPHNLETEERMKCLYYLYASLDPNAVKALNEMWKCQNMLRSHVRELLDLHKQPTSEANCSAMFGKLMTIAKNLPDPGKAQDFVKKFNQVLGDDEKLRSQLELLISPTCSCKQADICVREIARKLANPKQPTNPFLEMVKFLLERIAPVHIDSEAISALVKLMNKSIEGTADDEEEGVSPDTAIRSGLELLKVLSFTHPTSFHSAETYESLLQCLRMEDDKVAEAAIQIFRNTGHKIETDLPQIRSTLIPILHQKAKRGTPHQAKQAVHCIHAIFTNKEVQLAQIFEPLSRSLNADVPEQLITPLVSLGHISMLAPDQFASPMKSVVANFIVKDLLMNDRSTGEKNGKLWSPDEEVSPEVLAKVQAIKLLVRWLLGMKNNQSKSANSTLRLLSAMLVSEGDLTEQKRISKSDMSRLRLAAGSAIMKLAQEPCYHEIITPEQFQLCALVINDECYQVRQIFAQKLHKALVKLLLPLEYMAIFALCAKDPVKERRAHARQCLLKNISIRREYIKQNPMATEKLLSLLPEYVVPYMIHLLAHDPDFTRSQDVDQLRDIKECLWFMLEVLMTKNENNSHAFMKKMAENIKLTRDAQSPDESKTNEKLYTVCDVALCVINSKSALCNADSPKDPVLPMKFFTQPEKDFCNDKSYISEETRVLLLTGKPKPAGVLGAVNKPLSATGRKPYVRSTGTETGSNINVNSELNPSTGNRSREQSSEAAETGVSENEENPVRIISVTPVKNIDPVKNKEINSDQATQGNISSDRGKKRTVTAAGAENIQQKTDEKVDESGPPAPSKPRRGRRPKSESQGNATKNDDLNKPINKGRKRAAVGQESPGGLEAGNAKAPKLQDLAKKAAPAERQIDLQR
- amount of IFN-γ produced: low
